# ± gives the standard deviation of the averaged measurements.
# Tested on: ATP
# Test: switch fluorescence ratio, 500 uM ATP over buffer (Cy3 cluster intensity, sum of 5 cycles each) (fold (ratio)); higher = stronger signal-on switching upon ATP binding; sequences stand for … in TCGTCGGCAGCGTCAGATGTGTATAAGAGACAGTTTTTTTTTTTTTTTTTTTTTTTTT…TC
# Conditions: aptamer strand: ATP DNA aptamer (quencher-CACCTGGGGGAGTATTGCGGAGGAAGG + anchor), 100 nM annealed; ATP concentration: 500 uM
# How it was run: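 Cy3-labelled switching-strand clusters on a modified Illumina MiSeq flow-cell were annealed to 100 nM quencher-labelled ATP aptamer, imaged in selection buffer, then imaged after 15 min with 500 uM ATP at 22 °C. Five buffer/ATP cycles ran, with NaOH stripping and re-annealing between them. The fluorescence ratio is summed target-cycle over summed buffer-cycle Cy3 intensity per cluster, averaged per switch-domain sequence. Clusters outside 100-1000 RFU were excluded.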
# 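Further: ATP exposure 15 min at 22 °C before imaging.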
row,Sequence,switch fluorescence ratio
1,TAGGGGTAGG,1.02 ± 0.021
2,TAGGGGTTAG,0.9808 ± 0.0098
3,TAGGGGTTCT,1.01 ± 0.061
4,TAGGGGTTGG,0.987 ± 0.03
5,TAGGGGTTTG,0.979 ± 0.027
6,TAGGGTAAAT,0.985 ± 0.012
7,TAGGGTAGTT,1.02 ± 0.071
8,TAGGGTCATT,0.999 ± 0.029
9,TAGGGTCTCT,0.989 ± 0.012
10,TAGGGTGCTA,1 ± 0.019
11,TAGGGTGTCA,1.03 ± 0.047
12,TAGGTAAATT,1.02 ± 0.054
13,TAGGTACTGG,1.04 ± 0.014
14,TAGGTAGGTT,1.015 ± 0.0086
15,TAGGTAGTCT,1.02 ± 0.015
16,TAGGTATGGC,0.976 ± 0.012
17,TAGGTATGGG,0.9955 ± 0.002
18,TAGGTCCCGG,0.996 ± 0.032
19,TAGGTCGGCC,1.004 ± 0.0061
20,TAGGTCGGGT,0.984 ± 0.035
21,TAGGTCTAGT,0.98706 ± 0.0005
22,TAGGTGCAGG,1.08 ± 0.068
23,TAGGTGGACT,1.01 ± 0.042
24,TAGGTGGGCA,0.987 ± 0.054
25,TAGGTGGGCT,1.011 ± 0.0064

row,Sequence,switch fluorescence ratio
1,TAGGTTCTAA,1.06 ± 0.079
2,TAGGTTGCAA,0.9665 ± 0.007
3,TAGGTTGGTG,1 ± 0.036
4,TAGGTTTGCC,1.08 ± 0.021
5,TAGGTTTTGT,1 ± 0.044
6,TAGTAATTTG,1.01 ± 0.019
7,TAGTAGAGGT,1 ± 0.043
8,TAGTAGGGGT,1.002 ± 0.0061
9,TAGTAGGTAG,0.985 ± 0.025
10,TAGTAGGTTG,0.979 ± 0.04
11,TAGTATGGGG,0.976 ± 0.045
12,TAGTATGTTT,1.004 ± 0.0061
13,TAGTATTTTT,0.977 ± 0.023
14,TAGTCTAGTG,0.9812 ± 0.0066
15,TAGTCTTAGG,0.973 ± 0.049
16,TAGTGAAGGC,0.988 ± 0.013
17,TAGTGAAGTC,1.02 ± 0.073
18,TAGTGATCTT,0.997 ± 0.0066
19,TAGTGCACGG,0.995 ± 0.039
20,TAGTGGCAGC,0.9797 ± 0.0053
21,TAGTGGCTGG,1 ± 0.026
22,TAGTGGGATT,0.994 ± 0.016
23,TAGTGGTGGG,0.9844 ± 0.0089
24,TAGTGTATTG,1.01 ± 0.012
25,TAGTTAAATC,1 ± 0.042

row,Sequence,switch fluorescence ratio
1,TAGTTAATCA,0.991 ± 0.01
2,TAGTTAATTG,0.987 ± 0.067
3,TAGTTACGGT,1.05 ± 0.064
4,TAGTTACTTT,1.02 ± 0.021
5,TAGTTAGACG,1.11 ± 0.1
6,TAGTTATCGA,0.997 ± 0.0069
7,TAGTTCGGTT,1.01 ± 0.016
8,TAGTTCTGGG,0.9428 ± 0.0012
9,TAGTTGAAGG,0.9942 ± 0.0051
10,TAGTTGACAA,0.99 ± 0.0024
11,TAGTTGACCC,1.01 ± 0.053
12,TAGTTGCTCA,0.993 ± 0.046
13,TAGTTGGGAT,0.991 ± 0.029
14,TAGTTGGGCA,0.987 ± 0.026
15,TAGTTGTCCG,1.02 ± 0.12
16,TAGTTGTGGT,0.99 ± 0.034
17,TAGTTGTTTA,0.985 ± 0.046
18,TAGTTTTCAG,1.02 ± 0.047
19,TAGTTTTGAA,0.997 ± 0.072
20,TAGTTTTGGA,0.988 ± 0.01
21,TAGTTTTTAG,0.981 ± 0.018
22,TAGTTTTTCC,1.03 ± 0.037
23,TATAAAGAGG,0.987 ± 0.038
24,TATAAAGGGT,1.02 ± 0.055
25,TATAAAGTTT,1.01 ± 0.0081

row,Sequence,switch fluorescence ratio
1,TATAAATGGG,1 ± 0.0042
2,TATAACATGT,0.997 ± 0.026
3,TATAACGCTT,1.01 ± 0.017
4,TATAACTTGA,1.02 ± 0.0048
5,TATAAGAGCG,1.004 ± 0.0065
6,TATAAGGATG,0.993 ± 0.019
7,TATAAGTCAC,1.146 ± 0.011
8,TATAATAGTT,0.965 ± 0.037
9,TATAATCGA,1.03 ± 0.067
10,TATAATGCGC,0.995 ± 0.034
11,TATAATGGCG,0.961 ± 0.04
12,TATAATTGCC,0.991 ± 0.0076
13,TATAATTTCT,1.04 ± 0.018
14,TATACATCTG,1.0055 ± 0.00054
15,TATACGAAGA,1.08 ± 0.045
16,TATACGGGAT,1.06 ± 0.043
17,TATACGGGGA,1.01 ± 0.021
18,TATACGGTTA,1.06 ± 0.022
19,TATACTAGTT,1.04 ± 0.033
20,TATACTCCTG,1.16 ± 0.041
21,TATACTTAGT,1.025 ± 0.0036
22,TATAGAAAAT,1.03 ± 0.026
23,TATAGAAGCG,1.01 ± 0.021
24,TATAGAAGT,1.002 ± 0.0015
25,TATAGAGTAA,1.02 ± 0.034

row,Sequence,switch fluorescence ratio
1,TATAGAGTTT,1.01 ± 0.023
2,TATAGCCTAG,0.99 ± 0.027
3,TATAGGATGG,0.98 ± 0.028
4,TATAGGCAGG,0.9772 ± 0.008
5,TATAGGCCTC,1.001 ± 0.0064
6,TATAGGGTTT,1.07 ± 0.12
7,TATAGGTTGG,1.02 ± 0.031
8,TATAGTCTTT,0.983 ± 0.015
9,TATATAGGGG,1 ± 0.026
10,TATATATGAA,1.01 ± 0.015
11,TATATCTATA,1.02 ± 0.015
12,TATATGCCTT,1.01 ± 0.036
13,TATATGCGTG,0.9932 ± 0.0039
14,TATATTACAG,1.05 ± 0.028
15,TATATTATGA,0.999 ± 0.023
16,TATATTTTTC,1.15 ± 0.24
17,TATCAAAGGG,1.023 ± 0.0067
18,TATCAAAGGT,1.01 ± 0.025
19,TATCACACTG,1.09 ± 0.12
20,TATCACGGCG,0.998 ± 0.013
21,TATCACGGCT,0.969 ± 0.0099
22,TATCACTGTT,1.05 ± 0.079
23,TATCAGAAGC,1.012 ± 0.01
24,TATCAGAGGT,1.03 ± 0.036
25,TATCAGATTA,0.998 ± 0.033

row,Sequence,switch fluorescence ratio
1,TATCAGCTGA,0.9974 ± 0.0036
2,TATCAGGGG,1.11 ± 0.054
3,TATCAGTAGT,1.016 ± 0.0028
4,TATCAGTGAT,1.02 ± 0.071
5,TATCATAGCG,1.01 ± 0.046
6,TATCATGGGG,0.996 ± 0.031
7,TATCCCCCGG,1.95 ± 1.2
8,TATCCGAACG,1.4467 ± 0.00019
9,TATCCGGGTG,3.23 ± 0.25
10,TATCCTGGCG,1.03 ± 0.057
11,TATCGAAGGC,0.982 ± 0.022
12,TATCGCTGGT,1.04 ± 0.023
13,TATCGGATGG,1.0207 ± 0.00094
14,TATCGGGGTG,0.996 ± 0.053
15,TATCGGGGTT,0.98 ± 0.046
16,TATCGGGTGG,1.01 ± 0.097
17,TATCGGTATT,1 ± 0.039
18,TATCGGTCCG,1.01 ± 0.024
19,TATCTATCAT,0.969 ± 0.024
20,TATCTATTTT,0.964 ± 0.011
21,TATCTCCAAT,1.12 ± 0.052
22,TATCTCGGGA,0.988 ± 0.02
23,TATCTGAACG,1.01 ± 0.037
24,TATCTGCTAC,3.67 ± 0.7
25,TATCTGGGTG,1.06 ± 0.029

row,Sequence,switch fluorescence ratio
1,TATCTGGGTT,1.06 ± 0.079
2,TATCTTTTCT,0.968 ± 0.014
3,TATGAAACCG,1.02 ± 0.086
4,TATGACGCGG,0.9833 ± 0.0053
5,TATGAGAGCC,1.02 ± 0.026
6,TATGAGGGCA,1.02 ± 0.013
7,TATGAGGGCG,1.04 ± 0.041
8,TATGAGGGGC,0.967 ± 0.013
9,TATGAGGTCT,1.02 ± 0.032
10,TATGATAGCC,1.04 ± 0.037
11,TATGATAGGT,0.9914 ± 0.0013
12,TATGATGGGC,0.9577 ± 0.0057
13,TATGATTACG,1.03 ± 0.013
14,TATGATTTGC,1 ± 0.012
15,TATGCACTGA,1.06 ± 0.024
16,TATGCATTGT,1.01 ± 0.017
17,TATGCATTTC,1.08 ± 0.0049
18,TATGCGAGAC,2.3 ± 0.15
19,TATGCGTTTT,0.98 ± 0.013
20,TATGCTTATT,1 ± 0.024
21,TATGCTTTGG,0.98 ± 0.03
22,TATGGAGTGG,1 ± 0.039
23,TATGGATGGC,1.01 ± 0.058
24,TATGGATTAT,1.02 ± 0.081
25,TATGGCCTGG,1.04 ± 0.015

row,Sequence,switch fluorescence ratio
1,TATGGGAGGG,0.952 ± 0.022
2,TATGGGAGGT,1.04 ± 0.029
3,TATGGGCAGC,1.03 ± 0.018
4,TATGGGCATT,0.998 ± 0.016
5,TATGGGCGCG,1.11 ± 0.23
6,TATGGGGTTT,1.01 ± 0.031
7,TATGGGTGAT,1.01 ± 0.034
8,TATGGGTGTG,1.02 ± 0.037
9,TATGGGTTTT,1.02 ± 0.037
10,TATGGTGAGC,1.01 ± 0.023
11,TATGGTTAAT,0.982 ± 0.016
12,TATGTAAGGA,0.985 ± 0.041
13,TATGTAATGT,0.993 ± 0.031
14,TATGTACACA,1.02 ± 0.059
15,TATGTACGGG,1.0612 ± 0.00037
16,TATGTACTAG,1.049 ± 0.0089
17,TATGTAGATT,1.017 ± 0.01
18,TATGTAGTAG,0.971 ± 0.042
19,TATGTAGTCG,1.02 ± 0.038
20,TATGTATATA,1.01 ± 0.079
21,TATGTATCTA,1.02 ± 0.043
22,TATGTATTAT,0.994 ± 0.062
23,TATGTCATGT,1.02 ± 0.011
24,TATGTCATTT,0.957 ± 0.011
25,TATGTCCAGT,1.0009 ± 0.00027

# Source: the supplement of paper PMC10126150
